Experimental data from the DeepSol protein solubility set.

Assay: soluble on expression in E. coli; label from the status in PepcDB or PDB records

Soluble on expression in E. coli, not soluble:
SLHCIPLWRCNRHVESIDKRHCSLVYVPEEIYRYARSLEELLLDANQLRELPEQFFQLVKLRKLGLSDNEIQRLPPEIANFMQLVELDVSRNEIPEIPESISFCKALQVADFSGNPLTRLPESFPELQNLTCLSVNDISLQSLPENIGNLYNLASLELRENLLTYLPDSLTQLRRLEELDLGNNEIYNLPESIGALLHLKDLWLDGNQLSELPQEIGNLKNLLCLDVSENRLERLPEEISGLTSLTDLVISQNLLETIPDGIGKLKKLSILKVDQNRLTQLPEAVGECESLTELVLTENQLMTLPKSIGKLKKLSNLNADRNKLVSLPKEIGGCCSLTVFCVRDNRLTRIPAEVSQATELHVLDVAGNRLLHLPLSLTALKLKALWLSDNQSQPMLTFQTDTDYTTGEKILTCVLLPQLPSEPTCQENLPRCGALENLVNDVSDEAWNERAVNRVSAIRFVEDEKDEEDNETRTLLRRATPHPGELKHMKKTVENLRNDMNAAKGLDSNKNEVNHAIDRVTTS
SLHGELDKIYETLALAERRGPGPVDLLLCCGDFQAVRNEADLRCMAVPPKYRHMQTFYRYYSGEKKAPVLTLFIGGNHEASNHLQELPYGGWVAPNIYYLGLAGVVKYRGVRIGGISGIFKSHDYRKGHFECPPYNSSTIRSIYHVRNIEVYKLKQLKQPIDIFLSHDWPRSIYHYGNKKQLLKTKSFFRQEVENNTLGSPAASELLEHLKPTYWFSAHLHVKFAALMQHQAKDKGQTARATKFLALDKCLPHRDFLQILEIEHDPSAPDYLEYDIEWLTILRATDDLINVTGRLWNMPENNGLHARWDYSATEEGMKEVLEKLNHDLKVPCNFSVTAACYDPSKPQT
SLKGRWVKYLLMGTVVAMLAACSSKPTDRGQQYKDGKFTQPFSLVNQPDAVGAPINAGDFAEQINHIRNSSPRLYGNQSNVYNAVQEWLRAGGDTRNMRQFGIDAWQMEGADNYGNVQFTGYYTPVIQARHTRQGEFQYPIYRMPPKRGRLPSRAEIYAGALSDKYILAYSNSLMDNFIMDVQGSGYIDFGDGSPLNFFSYAGKNGHAYRSIGKVLIDRGEVKKEDMSMQAIRHWGETHSEAEVRELLEQNPSFVFFKPQSFAPVKGASAVPLVGRASVASDRSIIPPGTTLLAEVPLLDNNGKFNGQYELRLMVALDVGGAIKGQHFDIYQGIGPEAGHRAGWYNHYGRVWVLKTAPGAGNVFSG
SLNSVTRLDGANRYEVAVNVSKQGWTSASTVIVANGKAYADVLSATPFAYRNNAPVLLTEASKLPTATKNRISQLKPSKVIVIGGTVSVQNGVVSEIKKLGVSSVERIGGANRYEVAANIANKLPSNSKAVIANGTAYADSLAIGAYAARNGIPILLTSSNSIPTATKNAMKSKGTTSTIVVGGEVSISSSVYKQLASPTRIGGSNRYEVAANVVKKYYSSAKNAIISNGYAYADGLTGSVLAAKQNRPMMFTNASSLPTPTREVIGSKNMTTFTVLGGTVSLQSNVVSQLKN
SLPGKLALKLDPTILKHLAKNYDVIVITGTNGKTLTTALTVKVLREQYPDILTNPSGSNMKQGIVTTFLRAPKAHQKPLAVLEVDEANVIMVTKYITPKAFVFTNIFRDQMDRYGEIYTTYQKILDGVALAPEATIIANGDLPLFNAKQLPNPILYYGFDYQPDHDQQAPANTDGLLCPRCQHILRYHSRTYSNMGKYYCPHCGFERPQLTYKLNALTAMTPTSSDFEINGQAMHLNIGGQYNIYNALAAYAVGRFMDVTPAKIAHALSDNDEQV

Soluble on expression in E. coli, soluble:
SLGRIKAQAFGFDQTFQSYRKDDFVMAFFKDPNVIPNLKLLSDSSGQWIILGTEVKKIEAINVPCTQLSMSFFHRLYDEDIVRDSGHIVKCLDSFCDPFLISDELRRVLLVEDSEKYEIFSQPDREEFLFCLFKHLCLGGALCQYEDVISPYLETTKLIYKDLVSVRKNPQTKKIQITSSVFKVSAYDSAGMCYPSAKNHEQTFSYFIVDPIRRHLHVLYHCYGVGDMS
SLHELSLCQSAVEIIQRQAEQHDVKRVTAVWLEIGALSCVEESAVRFSFEIVCHGTVAQGCDLHIVYKPAQAWCWDCSQVVEVHQHDAQCPLCHGERLRVDTGDSLIVKSIEVE
SLIKEQASKLIKEIVNQISSLASISNFVLLFPRLDFKGLGYIPQLFFIFVKHDLIEENLSSVSSARAVIDFTNTKSEYVNFNITPRPEIVTINKGILSSIYDQTLIRALRETPFMNSALEFNSNFIKMQFRQRFNLGVYYSMYSPSVGFHEVVSISSLKLKDTVYLEEVEISLQVKICKTFNILTYKG
SLIRGWLAEGERMKETSYYSYVVGELPKGCQYCVRGEKLVLFVTGVCPRNCFYCPLSPWRRKDVAYANERPIRKIEDIIEEAKIQEARGAGVTGGDPLARLNRTVEYIRTLKEEFGKKFHIHLYTTGILADKRALSMLYDAGLDEIRFHPDLFEPSSKFLNREIENLKNAFDFDWDVGGEVPAVPGFGDRIKWFAEILDKFGGKFLNINELEYSETNLSNILNRGFKLAGENSFAIKGSLELGLEILEWGEKNTSLYYHLCTAKLKDAVQLRNRLRRMAKNVAKPYMEITEDGTLRFGIAEYEDLEELYKFLVEEAEVPKEWLYINWEKKRIEMPVEVAEELAEAIEGDVKFYIVEEYPTWDRIEVERIPLNEG
SLKEPRWRDPELPEVLAMLRHPVDPVKANAAAYLQHLCFENEGVKRRVRQLRGLPLLVALLDHPRAEVRRRACGALRNLSYGRDTDNKAAIRDCGGVPALVRLLRAARDNEVRELVTGTLWNLSSYEPLKMVIIDHGLQTLTHEVIVPHSGWEREPNEDSKPRDAEWTTVFKNTSGCLRNVSSDGAEARRRLRECEGLVDALLHALQSAVGRKDTDNKSVENCVCIMRNLSYHVHKEVPGADRYQEAEPGPLGSAVGSQRRRRDDASCFGGKKAKEEWFHQGKKDGEMDRNFDTLDLPKRTEAAKGFELLYQPEVVRLYLSLLTESRNFNTLEAAAGALQNLSAGNWMWATYIRATVRKERGLPVLVELLQSETDKVVRAVAIALRNLSLDRRNKDLIGSYAMAELVRNVRNAQAPPRPGACLEEDTVVAVLNTIHEIVSDSLDNARSLLQARGVPALVALVASSQSVREAKAASHVLQTVWSYKELRGTLQKDGWTKARFQSAAATAKGPK
SLKTIDMKYLRLLAKEYPTIAKTATEIINLEAIMNLPKGTEHFLSDVHGEYSAFEQVLRNGSGVVKRKIRDIFGAELDDAEINSLSTLIYYPEEKMDLLASETEDLQAWYRTTLFRLIELCQYVASKYTRSKVRKAMPEDFAYILEELLHENYNEDDKKLYYEEILQHIISLGRAEEFISALSLLIQQLVVDHLHIVGDVYDRGPYPDKIMDTLMNYHSLDFQWGNHDILWMGAASGSRVCAANVIRISARYLNLDILEDSYGISLRPLALFADEVYKDDPCTYFQPKNEENINYSNAEITQIARMHKAISIIQFKLEGEIINRRKEFDMDHRLLLQFIDYKKGTIHLKGKEYLLLDSHFPTINPEKPYELTDAERELIGKITAAFKNCRRLQKHVQFLYSKGSMFLTYNGNLLYHGCIPLHEDGTFMEMKLRGEKYAGRSLLEQFEILTREAYVRPTGTKEKKYACDIVWYLWTGAISSLFGKSEMTTFERYFVAEKETHTEEKNPYYKLRNNELICKQILEEFGLDGECGHIINGHTPVKEGKGESPIKANGKMLVIDGGFAKAYHKETNLAGYTLLFNSYGLQLVSHQPFTTKEDAIKNETDILSTRQVIEMEINRKRVRDTDIGAKLSEQAEDLKLLLDAYRNGLLHENR
SLLAMPSAISVAVLPDSPHAREMATKAHNSGHEVLIHLPMAPLSKQPLEKNTLRPEMSSDEIERIIRSAVNNVPYAVGINNHMGSKMTSNLFGMQKVMQALERYNLYFLDSVTIGNTQAMRAAQGTGVKVIKRKVFLDDSQNEADIRVQFNRAIDLARRNGSTIAIGHPHPSTVRVLQQMVYNLPPDITLVKASSLLNEPQVDTSTPPKNAVPDAPRNPFRGVKLCKPKKPIEPVYANRFFEVLSESISQSTLIVYFQHQWQGWGKQPEAAKFNASAN
SLNPRDVVIVDFGRTPMGRSKGGMHRNTRAEDMSAHLISKVLERNSKVDPGEVEDVIWGCVNQTLEQGWNIARMASLMTQIPHTSAAQTVSRLCGSSMSALHTAAQAIMTGNGDVFVVGGVEHMGHVSMMHGVDPNPHMSLYAAKASGMMGLTAEMLGKMHGISREQQDAFAVRSHQLAHKATVEGKFKDEIIPMQGYDENGFLKIFDYDETIRPDTTLESLAALKPAFNPKGGTVTAGTSSQITDGASCMIVMSAQRAKDLGLEPLAVIRSMAVAGVDPAIMGYGPVPATQKALKRAGLNMADIDFIELNEAFAAQALPVLKDLKVLDKMNEKVNLHGGAIALGHPFGCSGARISGTLLNVMKQNGGTFGLSTMCIGLGQGIATVFERV
SLPKLHMFYLGGNAGRSNIEVHDIQFAVCDDYREAVPALKAAWFGDADKIHIDGWQVVEWADGYDIAVSETPKTKMPSENAPRLYFANVGGYRAGQLAEAHAFGLFAAATPAEAKQKALQTLLTDSYVQQHKDNLKDVDNLLALDRIGNFHIRLTPNPHGKPAEIGFQGYLPI
SLPTIIGLAAVARSGKDTVASMLMEHPEVATYALADPLKAGCQAIFGLSDAEAWSDEAKEKTIDLWGLSPRQLFQRAGTEWLRDHNADHWLLRADRQLNHKPVEPRPVSATELASPSASIWLGVQAFWGLTEAQTWQDDLRAAEDPFWNITPKEMFAIVDRYLSRDFPSYVSTRSKRAISTPTRPLTNAAGKSIFIIKDIRYENEAAFWRSHNGVIWHITRNNAIKVQSHSSEDGIEFRNGDISIENNDTIEELRKKVESAWSCVRVD
SLRPIPYLPNMIGLITGRASAAERDVTTVASARWPAARFAVRNVAVQGPNAVGQIVEALRELDRDPDVDVIVLARGGGSVEDLLPFSDETLCRAIAACRTPVVSAVGHEPDNPLCDLVVDLRAATPTDAAKKVVPDTAAEQRLIDDLRRRSAQALRNWVSREQRAVAQLRSRPVLADPMTMVSVRAEEVHRARSTLRRNLTLMVAAETERIGHLAARLATLGPAATLARGYAIVQTVAQTGPEGGSEPQVLRSVHDAPEGTKLRVRVADGALAAVSEGQTNGL
SLRRVLMLEGCAQPTLSPNTNAATARVLDRLGISVMPANEAGCCGAVDYHLNAQEKGLARARNNIDAWWPAIEAGAEAILQTASGCGAFVKEYGQMLKNDALYADKARQVSELAVDLVELLREEPLEKLAIRGDKKLAFHCPCTLQHAQKLNGEVEKVLLRLGFTLTDVPDSHLCCGSAGTYALTHPDLARQLRDNKMNALESGKPEMIVTANIGCQTHLASAGRTSVRHWIEIVEQALEKE
SLRSIMTPRGEISWVDAEQSEDEIRRQLLSSPHSLFPVCRGELDEIIGIVRAKEMLVALESGENVAALASASPAIVVPETLDPINLLGVLRRARGSFVIVTNEFGVVQGLVTPLDVLEAIAGEFPDADETPEIVIDGDGWLIKGSTDLHALQQALGLDPLINDDEDIATVAGLVISANGHIPRIGDVVSLPPLHFTVVEANDYRV
SLRSLLTRRTIAIEGCCHGELDAIYSSLARLEEMHKMKVDLLICCGDFQFLACPPKYRDLRDFPAYFRGEKEAPCLTVFVGGNHEAPTVLRELYYGGWVAPKIFYLGHAGVVNVGGVRIAGLSGIFKSQDYRKGYFERPPYTEDTMRSAYHVREFEIAKLNRELTGRVDIVVTHDWPEGIYDFGDKTELIRQKPFLEKDIQAHELGNPHSMELLKKLKPAFWFAAHLHTRFAAVYVHPGPEGKATRFLALDKVLPRREFLQILEVEPLLPAGYVQQLSPGISRRSPTLCYDEEWLAILRANQQVLPVSRFPQKSCLVTKATADDLATVKKNLASLGLR
